Where two headings read alike, the source gives them in different places.

As a reminder, the EC50 is the concentration at which the effect is half-maximal. As a reminder, the IC50 is the concentration that gives 50% inhibition.

In assay [1] the target is T1, rhNav1.7α+β1-β2-β3 (rhesus monkey α subunit with human β …).
T1 construct: P2A cleaves it into α, β1, β2, β3; also called rhNav1.7-beta1-beta2-beta3
Kind of assay: binding FACS, CHO FlpIn cells.

Assay [2] concerns the target T2, huNav1.7α on HEK cells (without β subunits) (human, UniProt Q15858 1-1988).
T2 construct: also called HEKa huNav1.7α
Description: binding FACS, HEK cells (HEKa).

For assay [3], the target named is T3, huNav157 chimera 14 + β1-β2-β3 on cells (human (huNav1.7α/huNav1.5α chimera)).
T3 construct: Extracellular loops and transmembrane helices of Nav1.7α, intracellular loops of Nav1.5α; P2A linkers are cleaved co-translationally; also called HEK FlpIn Nav157ch14-β1-β2-β3; huNav157 chimera 14-beta1-beta2-beta3
Kind of assay: binding FACS, HEK FlpIn cells.

Assay [4] deals with T4, huNav157 chimera 14 on cells (without β subunits) (human (huNav1.7α/huNav1.5α chimera)).
T4 construct: also called HEK FlpIn Nav157ch14
Description: binding FACS, HEK FlpIn cells.

The target in assay [5] is huNav1.7α + β1 on HEK cells (human, UniProt Q15858 1-1988; Q07699 19-218). Description: binding FACS, HEK cells (HEKa/b1).
The target of assay [6] is T5, huNav1.7α + β1-β2-β3 (human Nav1.7α co-expressed with human Navβ1, Navβ2 and Navβ3 on cells) (human).
T5 construct: also called huNav1.7-beta1-beta2-beta3; CHO FlpIn huNav1.7α + β1-β2-β3
Description: binding FACS, CHO FlpIn cells. In a few lines: (§1)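 Assessment used purified FLAG3-tagged ISVD incubated on cells for 30 minutes at 4° C in PBS containing 10% FBS and NaN₃, with cells washed between steps. Propidium iodide (1 μg/mL) staining removed dead cells from analysis.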

The target in assay [7] is T6, huNav1.7α(E281V) + β1-β2-β3 (human).
T6 construct: polyprotein as encoded; the entry already carries E281V; also called huNav1.7(E281V)-beta1-beta2-beta3
Kind of assay: binding FACS, CHO FlpIn cells. How it is done: (§2) Binding of the ISVDs to cell-expressed Nav1.7α was detected via murine anti-Flag (Sigma, catalog #F1804). Briefly, cells were resuspended in FACS buffer (PBS, 10% FBS, NaN₃) and transferred to a 96-well V-bottom plate at 1×10^5 cells/well. Purified FLAG3-tagged ISVD was diluted in FACS buffer and added to the cells for 30 minutes at 4° C. […] Prior to the read-out, the samples were resuspended in 1 μg/mL propidium iodide (Sigma, catalog #P4170) to exclude dead cells. Between each step, the cells were centrifuged for 5 minutes at 200 grams and washed with 100 μL/well FACS buffer.
(§3) Based on the huNav1.7α model (as described above) the following huNav1.7α-rhNav1.7α polymorphisms can be allocated to the extracellular part of DI: N146S, F276V, R277Q, E281V and V331M. The first of the residues is in DI S1-S2 whereas the latter four residues belong to DI S5-S6. FACS binding studies (as described above) were performed to stable CHO FlpIn cell lines expressing different variants of huNav1.7+β1−β2−β3 each including one of the four possible extracellular huNav1.7α-rhNav1.7α polymorphisms in the DI S5-S6 region: F276V, R277Q, E281V and V331M (Table 23 and FIGS. 22A-22F). Individual polymorphisms were each sufficient to abolish the binding of F0103265B04, F0103362B08, F010301080, and F0103262B06 to huNav1.7α, recapitulating the absence of binding on rhNav1.7α. F0103262CO2, F0103275B05 and F0103387G05 are more subtly affected in terms of EC50 or Bmax by some of the polymorphisms. None of the individual DI S5-S6 polymorphisms by themselves appear to have an impact on the binding of the two rhNav1.7α cross-reactive ISVDs F0103387G04 and F0103464B09. In addition, no effect on binding of the two ISVDs was observed (data not shown) for the three extracellular DIV VSD huNav1.7α-rhNav1.7α polymorphisms Q1530P, H1531Y and E1534D (FIG. 22G).

Assay [8] deals with T7, huNav1.7α(R277Q) + β1-β2-β3 (human).
T7 construct: polyprotein as encoded; the entry already carries R277Q; also called huNav1.7(R277Q)-beta1-beta2-beta3
Kind of assay: binding FACS, CHO FlpIn cells. How it is done: as §2, §3

In assay [9] the target is T8, huNav1.7α + β1-β2-β3 (human, UniProt Q15858 1-1988; A5A6L6 19-218; O60939 30-215; Q2KI11 23-215).
T8 construct: Cell line (CHO FlpIn, HEK FlpIn, transient HEK293T) is named under assay; also called huNav1.7-beta1-beta2-beta3; human Nav1.7α with Navβ1, Navβ2 and Navβ3
Kind of assay: binding FACS, CHO FlpIn cells. The protocol:
as §2, §3

Assay [10] deals with T9, rhNav1.7α + β1-β2-β3 (rhesus monkey).
T9 construct: also called rhNav1.7-beta1-beta2-beta3; rhesus Nav1.7α
Kind of assay: binding FACS, CHO FlpIn cells. How it is done: as §2, §3

For assay [11], the target named is T10, huNav1.7α(F276V) + β1-β2-β3 (human, UniProt Q15858 1-1988; A5A6L6 19-218; O60939 30-215; Q2KI11 23-215).
T10 construct: polyprotein as encoded, P2A sites liberate the subunits; the entry already carries F276V; also called huNav1.7(F276V)-beta1-beta2-beta3
Kind of assay: binding FACS, CHO FlpIn cells. How it is done:
as §2, §3

Assay [12] addresses T11, huNav1.7α(V331M) + β1-β2-β3 (human).
T11 construct: polyprotein as encoded; the entry already carries V331M; also called huNav1.7(V331M)-beta1-beta2-beta3
Kind of assay: binding FACS, CHO FlpIn cells. How it is done:
as §2, §3

Assay [13] has as its target T12, huNav1.7α (HEKa) (human, UniProt Q15858 1-1988).
T12 construct: also called HEKa huNav1.7α
Description: binding FACS, HEKa cells. In a few lines:
as §1

The target in assay [14] is T13, huNav1.7α + β1 (HEKa/β1) (human, UniProt Q15858 1-1988; Q07699 19-218).
T13 construct: also called HEKa/β1 huNav1.7α
Description: binding FACS, HEKa/β1 cells. In a few lines: as §1

Assay [15] deals with T8, huNav1.7α + β1-β2-β3. Kind of assay: binding FACS, CHO FlpIn cells. A digest of the protocol:
as §1
This is another data set of the same source.

Assay [16] addresses T8, huNav1.7α + β1-β2-β3. Description: competition FACS, HEK FlpIn cells, vs EC30 of CMYC3-F0103265B04. How it is done: Competition FACS assays were performed with CMYC3-tagged ISVD F0103265B04 or F0103275B05(N93R) affinity maturation variant on a HEK FlpIn huNav1.7α+β1−β2−β3 transgenic cell line. Briefly, cells were resuspended in FACS buffer (PBS, 2% FBS, 0.05% NaN₃) and 1×10⁵ cells/well were transferred to 96-well V-bottom plates. Cells were subsequently resuspended in a 100 μL mixture of purified ISVD (dilution series) and CMYC3-tagged ISVD F0103265B04 (at a concentration equivalent to EC30) followed by incubation for 1.5 hours at 4° C. […] Between each step, the cells were centrifuged for 5 minutes at 200 g and washed with 100 μL/well FACS buffer. Prior to the read-out, the samples were resuspended in 5 nM TOPRO3 (Molecular probes, catalog #T3605) to exclude dead cells. F0103262CO2, F0103262B06, F0103265A11, F0103265B04, F0103275B05, F0103362B08, and F0103387G04 all compete with F0103265B04 for binding to huNav1.7α, in contrast to an irrelevant control ISVD (IRR) (see Table 21 and FIG. 15A, FIG. 15B, FIG. 15C, and FIG. 15D).

B1: F010302368 (VHH)
VHH: EVQLVESGGGVVQPGGSLRLSCAASSRAFIRDVFTGWYRQAPGKQRELVARIYNGGNTNYADSVKGRFTISRDNAKKTVYLQMNSLRPEDTALYYCLFSGTISTGREYRSGDYWGQGTLVTVSS
notes: F010302365 background plus R39Q, A63V
For the molecule B1, the binding result in assay [1] is “no binding”.

B2: F010302333 (VHH)
VHH: EVQLVESGGGVVQPGGSLRLSCAASSRQFIRDVFTGWYRRAPGKQRELVARIYNEGNTNYADSAKGRFTISRDNAKKTVYLQMNSLRPEDTALYYCLFSGTISTGREYRSGDYWGQGTLVTVSS
notes: F010302365 background plus A28Q, G54E
As for B2, in assay [1], the binding result was “no binding”.

B3: F0103275B05 (VHH)
VHH: EVQLVESGGGLVQPGGSLRLSCAASGSIFNINSMAWYRRAPGKQRELVASSTNGGSTNYADSVKGRFTISRDNAKRVYLQMNSLTPEDTAVYYCNALLQPSIYDISRTYWGQGTLVTVSS
notes: also called F0103275B05 (parental)-FLAG-HIS6
Turning to B3, the EC50 is 0.014 µM in assay [2]; 0.033 µM in [3]; 0.012 µM in assay [4]; 0.039 µM in assay [5]; 0.066 µM in [6].

B4: F010301636 (VHH)
VHH: EVQLVESGGGVVQPGGSLRLSCAASGSIFNINSMAWYRRAPGKQRELVASSTNGGSTNYADSVKGRFTISRDNAKNVYLQMNSLRPEDTALYYCNALLQPSIYDISRTYWGQGTLVTVSS
notes: also called F0103275B05(L11V, R76N, T83R, V89L)
For B4, the EC50 was 0.017 µM in assay [2], 0.045 µM in assay [3], 0.014 µM in assay [4] and 0.03 µM in assay [5].

B5: F010301635 (VHH)
VHH: EVQLVESGGGVVQPGGSLRLSCAASGSIFNINSMAWYRQAPGKQRELVASSTNGGSTNYADSVKGRFTISRDNAKRVYLQMNSLRPEDTALYYCNALLQPSIYDISRTYWGQGTLVTVSS
notes: also called F0103275B05(L11V, R39Q, T83R, V89L)
As for B5, the EC50 in assay [2] is 0.019 µM; in [3], 0.035 µM; in assay [4], 0.016 µM; in assay [5] it was 0.031 µM.

B6: F010301637 (VHH)
VHH: EVQLVESGGGVVQPGGSLRLSCAASGSIFNINSMAWYRRAPGKQRELVASSTNGGSTNYADSVKGRFTISRDNAKRVYLQMNSLRPEDTALYYCNALLQPSIYDISRTYWGQGTLVTVSS
notes: also called F0103275B05(L11V, T83R, V89L)
For the molecule B6, the EC50 was determined as 0.013 µM in assay [2]; 0.029 µM in [3]; 0.011 µM in assay [4]; 0.03 µM in assay [5]; 0.056 µM in assay [6].

B7: F010301638 (VHH)
VHH: EVQLVESGGGVVQPGGSLRLSCAASGSIFNINSMAWYRQAPGKQRELVASSTNGGSTNYADSVKGRFTISRDNAKNVYLQMNSLRPEDTALYYCNALLQPSIYDISRTYWGQGTLVTVSS
notes: also called F0103275B05(L11V, R39Q, R76N, T83R, V89L)
For B7, the concentration for a half-maximal effect (EC50) in assay [2] came out at 0.023 µM; in [3] it was 0.05 µM; in assay [4], 0.018 µM; in assay [5], 0.032 µM.

B8: F010301080 (VHH)
VHH: EVQLVESGGGLVQPGGSLRLSCAASGMLFNANTQGWYRQAPGKQRELVAFIFWGGYVTYNDSVKGRFTISRDNAKRTMYLQMNSLKPEDSAIYYCSLSRYLGQGTLVTVSS
In the case of B8, the EC50 is 0.0025 µM in [7], 0.0032 µM in assay [8], 0.0034 µM in assay [9] and 0.0026 µM in assay [11]. The binding result in [10] and in [12] was “no binding” in each case.

B9: F010301641 (VHH)
VHH: EVQLVESGGGVVQPGGSLRLSCAASGSIFNINSMAWYRRAPGKQRELVASSTNGGSTNYADSVKGRFTISRDNAKNTVYLQMNSLRPEDTALYYCNALLQPSIYDISRTYWGQGTLVTVSS
notes: also called F0103275B05(R76_V78insT)(L11V, R76N, T83R, V89L)
For the molecule B9, the EC50 in assay [2] was 0.38 µM; in assay [3] it was 0.35 µM; in [4], 0.31 µM; in assay [5], 0.23 µM.

B10: F0103362B08 (VHH)
VHH: EVQLVESGGGLVQAGGSLRLSCAASVRPFSTSAMGWFRQAPEKEREAVAGILWNGIVTYYADSVKGRFTISRDNAKNEVYLQMNKLKPEDTAVYYCALDRDYGGRSFSAYEYEYWGQGTLVTVSS
notes: entry includes the FLAG-HIS6 tag; also called F0103362B08 (parental)-FLAG-HIS6
For B10, the EC50 in [7] came to 0.034 µM; in [8], 0.034 µM; in assay [9] it was 0.043 µM; in assay [11] it was 0.042 µM; in [13] it was 0.019 µM; in [14], 0.034 µM. Further, the concentration giving a half-maximal response (EC50) in [15] was found to be 0.11 µM. Moreover, the binding result in assay [10] and in [12] was “no binding” in each case. In addition, in assay [16], the IC50 came out at 0.15 µM.

Values taken from patent US20240002497A1 (Merck Sharp & Dohme, published 2024).
